Experimental findings from publication PMC12643504 are described below.

Usually stoichiometry N stands for a count of units in the complex or per binding partner.

Test [1] deals with Full-length PKD2 (WT) (human) (UniProt Q13563). Nature of the test: SEC; channel proteins solubilised in DDM, Strep-Tactin affinity purified, reconstituted in amphipol A8-35, MBP cleaved by TEV; SEC at 4°C on Superdex 200 10/300 GL in 25 mM HEPES pH 7.4, 150 mM NaCl, 1 mM TCEP, 1 mM CaCl2; FSEC (Superose 6 5/150 GL, tryptophan fluorescence) after heating. (In general: Size exclusion chromatography separates by hydrodynamic size, large species first.)

Test [2] addresses PKD2 R803X Taiwan founder truncation variant (human) (UniProt Q13563). Described as above.

In turn, “Full-length PKD2 (WT) (from UniProt Q13563 1-968) (natural protein)” had a stoichiometry N in test [1] of 4.

Substance “PKD2 R803X Taiwan founder truncation variant (from UniProt Q13563 1-802) (domain or fragment)” came in with a stoichiometry N in test [2] of 4.
